Reference: US7612188

Target: tissue factor (Innovin, Dade) (UniProt P13726)
Chain of UniProt P13726 (P13726 33-295): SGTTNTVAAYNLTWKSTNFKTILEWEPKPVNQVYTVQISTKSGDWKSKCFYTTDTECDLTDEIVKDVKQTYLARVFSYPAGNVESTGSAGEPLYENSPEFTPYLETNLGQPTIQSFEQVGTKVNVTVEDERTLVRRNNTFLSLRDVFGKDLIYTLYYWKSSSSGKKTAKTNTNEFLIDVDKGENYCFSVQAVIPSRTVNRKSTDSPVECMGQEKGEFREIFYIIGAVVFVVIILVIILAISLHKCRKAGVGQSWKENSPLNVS

Substance | competition clotting assay with FFR-VIIa (0 to 3.5 nM) and Innovin, compared with VIIa-Q11E33 | competition clotting assay with active site modified VIIa (0-3.2 nM), compared with the Q11E33 mutant
Human factor VIIa-T9Q11E33 | Human factor VIIa-T9Q11E33 exhibited a severe loss of competitive binding affinity | –
factor VII with leucine for phenylalanine at position 5 and the Q11E33 mutations | – | had much lower activity than the Q11E33 mutant
